Assay results published in patent US20250136718A1 (MABWELL THERAPEUTICS, published 2025).
Where two headings read alike, the source gives them in different places.

What was measured:
[1] = molecular target: T1, mouse TMPRSS6 expressed on HEK293T cells, MoTMPRSS6-(His)6 (mouse, UniProt Q9DBI0 1-811); test: summary of Example 4 (FACS, cell surface ELISA)
T1 construct: HEK293T cells stably expressing the construct; also called murine TMPRSS6
T1 sequence: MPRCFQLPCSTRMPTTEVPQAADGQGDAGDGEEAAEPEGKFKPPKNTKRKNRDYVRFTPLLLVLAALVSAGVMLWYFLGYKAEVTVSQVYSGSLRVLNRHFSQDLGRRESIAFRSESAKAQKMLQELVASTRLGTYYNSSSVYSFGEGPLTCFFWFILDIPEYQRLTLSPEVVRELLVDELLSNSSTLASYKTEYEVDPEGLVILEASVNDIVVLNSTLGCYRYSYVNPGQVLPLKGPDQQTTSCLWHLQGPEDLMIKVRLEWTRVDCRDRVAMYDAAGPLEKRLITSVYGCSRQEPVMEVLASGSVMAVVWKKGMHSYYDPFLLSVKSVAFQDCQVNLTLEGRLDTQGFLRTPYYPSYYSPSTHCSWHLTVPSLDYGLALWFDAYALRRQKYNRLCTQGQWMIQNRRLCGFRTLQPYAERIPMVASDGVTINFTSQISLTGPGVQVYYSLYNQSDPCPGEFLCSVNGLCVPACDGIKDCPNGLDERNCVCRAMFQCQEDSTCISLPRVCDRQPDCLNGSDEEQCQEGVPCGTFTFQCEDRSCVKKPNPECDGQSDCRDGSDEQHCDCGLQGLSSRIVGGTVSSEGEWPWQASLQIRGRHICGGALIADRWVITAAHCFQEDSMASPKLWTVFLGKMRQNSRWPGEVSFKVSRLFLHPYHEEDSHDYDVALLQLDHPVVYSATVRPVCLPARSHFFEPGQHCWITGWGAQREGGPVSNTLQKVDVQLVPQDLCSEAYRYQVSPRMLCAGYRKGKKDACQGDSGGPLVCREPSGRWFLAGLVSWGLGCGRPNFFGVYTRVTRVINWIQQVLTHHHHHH
Procedure: (§1) Selected anti-TMPRSS6 antibodies were tested to determine whether any are capable of binding to TMPRSS6 from mouse and/or cynomolgus monkey. HEK293T cells stably expressing human TMPRSS6 (HuTMPRSS6-(His)₆) (generated by LakePharma Inc as described above), HEK293T cells stably expressing mouse TMPRSS6 (MoTMPRSS6-(His)₆) (SEQ ID NO: 98) (generated by LakePharma Inc as described above) and HEK293T cells transiently expressing cynomolgus monkey TMPRSS6 (CynoTMPRSS6-(His)₆) (SEQ ID NO: 99) (generated in house) were collected. HEK293T cells stably expressing human TMPRSS6 were used as a positive control and HEK293T cells were used as a negative control (as described above). Cells were blocked with dPBS+3% BSA before incubation with anti-TMPRSS6 antibodies diluted in dPBS+3% BSA. After incubation, cells were washed with dPBS and followed by another incubation with goat anti-mouse IgG conjugated with AlexaFluor-488 as a 2° antibody (Invitrogen). At last, cells were washed with dPBS to remove unbound antibody, re-suspended with dPBS+1 mM EDTA, and then subjected to FACS analysis using a NOVOCYTE® Flow Cytometer (ACEA Biosciences, Inc., San Diego CA). Bound antibody was determined by excitation at 488 nm and measurement of emission (FITC-A) at 530 nm. Results for these assays are shown in histogram plots in FIGS. 4A-4I.
(§2) HEK293T cells stably expressing mouse TMPRSS6 (generated by LakePharma Inc as described above, FIGS. 4J, 4L, 4N, 4P, 4R, 4T) or cynomolgus monkey (generated in house as described above, FIGS. 4K, 4M, 4O, 4Q, 4S, 4U) were fixed with methanol (100%), and washed with dPBS (Dulbecco's phosphate-buffered saline, Corning Cellgro) before incubation with various concentrations of anti-TMPRSS6 antibodies and their humanized variants diluted in BSA medium (DMEM+1% Pen/Strep+10 mM HEPES+1 mg/ml BSA (Sigma-Aldrich)). Purified mouse IgG (FIGS. 4J-4O) or Human IgG1 (FIGS. 4P-4U) was used as a control.

[2] = molecular target: T2, mouse TMPRSS6 expressed on HEK293T cells, MoTMPRSS6-(His)6 (UniProt Q9DBI0 1-811); test: cell surface ELISA
T2 chain: T1 sequence

[3] = molecular target: T1, mouse TMPRSS6 expressed on HEK293T …; test: summary of Example 4 (cell surface ELISA)
Procedure: as §2, with “control. After incubation, cells were washed with BSA medium and then incubated with goat anti-mouse (Invitrogen, FIGS. 4J-4O) or anti-human (Millipore, FIGS. 4P-4U) IgG conjugated with HRP as a 2° antibody. Finally, cells were washed with dPBS to remove unbound antibody and color developed with ELISA liquid substrate (Sigma-Aldrich), followed by stopping the reaction with addition of the same volume of […] 1M H₂SO₄. Bound antibody was measured by absorbance at OD₄₅₀ₙₘ.” for “control.”

[4] = molecular target: T2, mouse TMPRSS6 expressed on HEK293T …; test: cell surface ELISA
[5] = molecular target: T1, mouse TMPRSS6 expressed on HEK293T …; test: FACS on HEK293T cells stably expressing MoTMPRSS6-(His)6
Procedure: as §1

[6] = molecular target: T1, mouse TMPRSS6 expressed on HEK293T …; test: cell surface ELISA on methanol-fixed HEK293T cells expressing mouse TMPRSS6
Procedure: as §2, with “control. After incubation, cells were washed with BSA medium and then incubated with goat anti-mouse (Invitrogen, FIGS. 4J-4O) or anti-human (Millipore, FIGS. 4P-4U) IgG conjugated with HRP as a 2° antibody. Finally, cells were washed with dPBS to remove unbound antibody and color developed with ELISA liquid substrate (Sigma-Aldrich), followed by stopping the reaction with addition of the same volume of […] 1M H₂SO₄. Bound antibody was measured by absorbance at OD₄₅₀ₙₘ.” for “control.”

B1: MWTx-003 anti-TMPRSS6 monoclonal antibody (antibody, mouse IgG2b, kappa, V domains shown)
VH: EVQLQQSGAELVKPGASVKLSCTASGFNIEDYYIHWVKERTEQGLEWIGRIDPEDGETTYAPQFQGKATIIPDTSSNTAYMQLSSLTSEDAAVYYCARSIYLDPMDYWGQGTSVTVSS
VL: DIVMTQSHKFMSTSVGDRVSITCKASQDVTTAVAWYQQKPGQSPKILIYWATTRHTGVPDRFTGSISGTTYILTISSVQAEDLALYYCQQHYSTPYTFGGGTKLEIKR
notes: Mouse monoclonal antibody from hybridoma (ATCC PTA-126761); The recombinant version r4K12B has the same HC and LC; also called r4K12B; recombinant MWTx-003
B1 was tested, and the binding result [1] was “binds” and the EC50 [2] was 0.07 µg/mL.

B2: humanized anti-TMPRSS6 antibody variant hzMWTx-001 Var (antibody, human IgG1, kappa, N297A, V domains shown)
VH: EVQLVQSGAEVKKPGASVKVSCKASGYTFTSYWITWVRQAPGQRLEWIGNIYPGSGSTYYNEKFKSKATITRDTSSRTAYMELSSLRSEDTAVYYCAPYDADYAMDYWGQGTLVTVSS
VL: DIQMTQSPSSLSASVGDRVTITCKASQDISNYLSWFQQKPGKAPKLLIYRANRLVEGVPSRFSGSGSGTDFTLTISSLQPEDFATYFCLQYDEFPLTFGGGTKVEIKR
notes: Human IgG1 / kappa
For B2, the binding result [3] was “binds” and the EC50 [4] was 0.03 µg/mL.

B3: MWTx-002 anti-TMPRSS6 monoclonal antibody (antibody, mouse IgG2b, kappa, V domains shown)
VH: EVQLQQSGAELVKPGASVKLSCTASGFNIKDYYIHWVKERTEQGLEWFGRIDPEDGESEYAPKFQGKATLTADTSSNTAYLQLSSLTSEDTAVYYCTRGDSMMVTYFDYWGQGTTLTVSS
VL: DIVMTQSHKFMSTSVGDRVSITCKASQDVSTAVAWYQQKPGQSPKLLIYWAFTRHTGVPDRFTSTGSGTDYALTISSVQAEDLALYYCQQHYRSPWTFGGGTKLEIKR
notes: Mouse monoclonal antibody from hybridoma (ATCC PTA-126760)
B3: no binding [5].

B4: humanized anti-TMPRSS6 antibody variant hzMWTx-002 Var (antibody, human IgG1, kappa, N297A, V domains shown)
VH: EVQLVQSGAEVKKPGASVKVSCKASGFNIKDYYIHWVRQATGQGLEWMGRIDPEDAESEYAPKFQGRVTITADTSTDTAYMELSSLRSEDTAVYYCTRGDSMMVTYFDYWGQGTLVTVSS
VL: DIQMTQSPSSLSASVGDRVTITCKASQDVSTAVAWYQQKPGKAPKLLIYWAFTRHTGVPSRFSGSGSGTDYALTISSLQPEDFATYYCQQHYRSPWTFGGGTKVEIKR
notes: Human IgG1 / kappa
B4: no binding [6].

B5: MWTx-001 anti-TMPRSS6 monoclonal antibody (antibody, mouse IgG2a, kappa, V domains shown)
VH: QVQLQQPGAELAKPGASVKMSCKASGYTFTSYWITWVKQRPGQDLEWIGNIYPGSGSTYYNEKFKSKATLTVDTSSRTAYMQLSSLTSADSAVYYCAPYDSDYAMDYWGQGTSVTVSS
VL: DIKMTQSPSSMYASLGERVTITCKASQDINNYLSWFQQKPGKSPKTLIYRANRLVDGVPSRVSGSGSGQDYSLTISSLEYEDVGIYFCLQYDEFPLTFGAGTKLELKR
notes: Mouse monoclonal antibody from hybridoma (ATCC PTA-126759)
In the case of B5, the binding result [1] is reported as “binds” and the EC50 [2] is reported as 0.25 µg/mL.

B6: humanized anti-TMPRSS6 antibody variant hzMWTx-003 Var (antibody, human IgG1, kappa, L234A L235A, V domains shown)
VH: QVQLVQSGAEVKKPGASVKVSCKASGFNIEDYYMHWVRQAPGQRLEWMGRIDPEDAETTYSPKFQGRVTIIPDTSANTAYMELSSLRSEDTAVYYCARSIYLDPMDYWGQGTLVTVSS
VL: DIQMTQSPKSLSASVGDRVTITCRASQDVTTALAWYQQKPGQSPKLLIYWATTRHSGVPSRFSGSGSGTDFTLTISSLQPEDFATYYCQQHYSTPYTFGQGTKLEIKR
notes: Human IgG1 / kappa
In the case of B6, the binding result [3] is reported as “binds” and the EC50 [4] is reported as 0.31 µg/mL.
